B1: Fc-fused protein of human TIGIT [human] / wild type human PVR, full length, on CHO-K1 cells [human] (parent complex)
chain 1: MMTGTIETTGNISAEKGGSIILQCHLSSTTAQVTQVNWEQQDQLLAICNADLGWHISPSFKDRVAPGPGLGLTLQSLTVNDTGEYFCIYHTYPDGTYTGRIFLEVLESSVAEHGARFQIP
chain 2: WPPPGTGDVVVQAPTQVPGFLGDSVTLPCYLQVPNMEVTHVSQLTWARHGESGSMAVFHQTQGPSYSESKRLEFVAARLGAELRNASLRMFGLRVEDEGNYTCLFVTFPQGSRSVDIWLRVLAKPQNTAEVQKVQLTGEPVPMARCVSTGGRPPAQITWHSDLGGMPNTSQVPGFLSGTVTVTSLWILVPSSQVDGKNVTCKVEHESFEKPQLLTVNLTVYYPPEVSISGYDNNWYLGQNEATLTCDARSNPEPTGYNWSTTMGPLPPFAVAQGAQLLIRPVDKPINTTLICNVTNALGARQAELTVQVKEGPPSEHSGISRNAIIFLVLGILVFLILLGIGIYFYWSKCSREVLWHCHLCPSSTEHASASANGHVSYSAVSRENSSSQDPQTEGTR

The first assay covers variants of B1. Kind of assay: flow cytometry on cells; 120 nM hTIGIT-Fc; CHOK1 cells overexpressing hPVR; parent: 1; read off a plot. In general terms: Flow cytometry measures light scatter and fluorescence of single cells or particles in a stream.
With chain 2 WPPPGTGDVVVQAPTQVPGFLGDSVTLPCYLQVPNMEVTHVSQLTWARHGEWGSMAVFHQTQGPSYSESKRLEFVAARLGAELRNASLRMFGLRVEDEGNYTCLFVTFPQGSRSVDIWLRVLAKPQNTAEVQKVQLTGEPVPMARCVSTGGRPPAQITWHSDLGGMPNTSQVPGFLSGTVTVTSLWILVPSSQVDGKNVTCKVEHESFEKPQLLTVNLTVYYPPEVSISGYDNNWYLGQNEATLTCDARSNPEPTGYNWSTTMGPLPPFAVAQGAQLLIRPVDKPINTTLICNVTNALGARQAELTVQVKEGPPSEHSGISRNAIIFLVLGILVFLILLGIGIYFYWSKCSREVLWHCHLCPSSTEHASASANGHVSYSAVSRENSSSQDPQTEGTR [chain 2 S52W], the ratio to parent was roughly 1.2.

As to chain 2 WPPPGTGDVVVQAPTQVPGFLGDSVTLPCYLQVPNMEVTHVSQLTWARHGERGSMAVFHQTQGPSYSESKRLEFVAARLGAELRNASLRMFGLRVEDEGNYTCLFVTFPQGSRSVDIWLRVLAKPQNTAEVQKVQLTGEPVPMARCVSTGGRPPAQITWHSDLGGMPNTSQVPGFLSGTVTVTSLWILVPSSQVDGKNVTCKVEHESFEKPQLLTVNLTVYYPPEVSISGYDNNWYLGQNEATLTCDARSNPEPTGYNWSTTMGPLPPFAVAQGAQLLIRPVDKPINTTLICNVTNALGARQAELTVQVKEGPPSEHSGISRNAIIFLVLGILVFLILLGIGIYFYWSKCSREVLWHCHLCPSSTEHASASANGHVSYSAVSRENSSSQDPQTEGTR [chain 2 S52R], the ratio to parent is roughly 1.1.

Regarding chain 2 WPPPGTGDVVVQAPTQVPGFLGDSVTLPCYLQVPNMEVTHVSQLTWARHGESGSMAVFHQTQGPSYSESKRLEFVAARLGAELRNASLRMFGLRVEDEGNYTCLFVTFPQWSRSVDIWLRVLAKPQNTAEVQKVQLTGEPVPMARCVSTGGRPPAQITWHSDLGGMPNTSQVPGFLSGTVTVTSLWILVPSSQVDGKNVTCKVEHESFEKPQLLTVNLTVYYPPEVSISGYDNNWYLGQNEATLTCDARSNPEPTGYNWSTTMGPLPPFAVAQGAQLLIRPVDKPINTTLICNVTNALGARQAELTVQVKEGPPSEHSGISRNAIIFLVLGILVFLILLGIGIYFYWSKCSREVLWHCHLCPSSTEHASASANGHVSYSAVSRENSSSQDPQTEGTR [chain 2 G111W], the ratio to parent is roughly 0.55.

Regarding chain 2 WPPPGTGDVVVQAPTQVPGFLGDSVTLPCYLQVPNMEVTHVSQLTWARHGESGSMAVFHQTQGPSYSESKRLEFVAARLGAELRNASLRMFGLRVEDEGNYTCLFVTFPQVSRSVDIWLRVLAKPQNTAEVQKVQLTGEPVPMARCVSTGGRPPAQITWHSDLGGMPNTSQVPGFLSGTVTVTSLWILVPSSQVDGKNVTCKVEHESFEKPQLLTVNLTVYYPPEVSISGYDNNWYLGQNEATLTCDARSNPEPTGYNWSTTMGPLPPFAVAQGAQLLIRPVDKPINTTLICNVTNALGARQAELTVQVKEGPPSEHSGISRNAIIFLVLGILVFLILLGIGIYFYWSKCSREVLWHCHLCPSSTEHASASANGHVSYSAVSRENSSSQDPQTEGTR [chain 2 G111V], the ratio to parent was roughly 1.6.

Regarding chain 2 WPPPGTGDVVVQAPTQVPGFLGDSVTLPCYLQVPNMEVTHVSQLTWARHGESGSMAVFHQTQGPSYSESKRLEFVAARLGAELRNASLRMFGLRVEDEGNYTCLFVTFPQMSRSVDIWLRVLAKPQNTAEVQKVQLTGEPVPMARCVSTGGRPPAQITWHSDLGGMPNTSQVPGFLSGTVTVTSLWILVPSSQVDGKNVTCKVEHESFEKPQLLTVNLTVYYPPEVSISGYDNNWYLGQNEATLTCDARSNPEPTGYNWSTTMGPLPPFAVAQGAQLLIRPVDKPINTTLICNVTNALGARQAELTVQVKEGPPSEHSGISRNAIIFLVLGILVFLILLGIGIYFYWSKCSREVLWHCHLCPSSTEHASASANGHVSYSAVSRENSSSQDPQTEGTR [chain 2 G111M], the ratio to parent was roughly 0.93.

Take chain 2 WPPPGTGDVVVQAPTQVPGFLGDSVTLPCYLQVPNMEVTHVSQLTWARHGESGSMAVFHQTQGPSYSESKRLEFVAARLGAELRNASLRMFGLRVEDEGNYTCLFVTFPQGQRSVDIWLRVLAKPQNTAEVQKVQLTGEPVPMARCVSTGGRPPAQITWHSDLGGMPNTSQVPGFLSGTVTVTSLWILVPSSQVDGKNVTCKVEHESFEKPQLLTVNLTVYYPPEVSISGYDNNWYLGQNEATLTCDARSNPEPTGYNWSTTMGPLPPFAVAQGAQLLIRPVDKPINTTLICNVTNALGARQAELTVQVKEGPPSEHSGISRNAIIFLVLGILVFLILLGIGIYFYWSKCSREVLWHCHLCPSSTEHASASANGHVSYSAVSRENSSSQDPQTEGTR [chain 2 S112Q]: the ratio to parent is roughly 1.4.

Consider chain 2 WPPPGTGDVVVQAPTQVPGFLGDSVTLPCYLQVPNMEVTHVSQLTWARHGESGSMAVFHQTQGPSYSESKRLEFVAARLGAELRNASLRMFGLRVEDEGNYTCLFVTFPQGRRSVDIWLRVLAKPQNTAEVQKVQLTGEPVPMARCVSTGGRPPAQITWHSDLGGMPNTSQVPGFLSGTVTVTSLWILVPSSQVDGKNVTCKVEHESFEKPQLLTVNLTVYYPPEVSISGYDNNWYLGQNEATLTCDARSNPEPTGYNWSTTMGPLPPFAVAQGAQLLIRPVDKPINTTLICNVTNALGARQAELTVQVKEGPPSEHSGISRNAIIFLVLGILVFLILLGIGIYFYWSKCSREVLWHCHLCPSSTEHASASANGHVSYSAVSRENSSSQDPQTEGTR [chain 2 S112R], for which the ratio to parent is roughly 1.

As for chain 2 WPPPGTGDVVVQAPTQVPGFLGDSVTLPCYLQVPNMEVTHVSQLTWARHGESGSMAVFHQTQGPSYWESKRLEFVAARLGAELRNASLRMFGLRVEDEGNYTCLFVTFPQGSRSVDIWLRVLAKPQNTAEVQKVQLTGEPVPMARCVSTGGRPPAQITWHSDLGGMPNTSQVPGFLSGTVTVTSLWILVPSSQVDGKNVTCKVEHESFEKPQLLTVNLTVYYPPEVSISGYDNNWYLGQNEATLTCDARSNPEPTGYNWSTTMGPLPPFAVAQGAQLLIRPVDKPINTTLICNVTNALGARQAELTVQVKEGPPSEHSGISRNAIIFLVLGILVFLILLGIGIYFYWSKCSREVLWHCHLCPSSTEHASASANGHVSYSAVSRENSSSQDPQTEGTR [chain 2 S67W], the ratio to parent was roughly 0.82.

As for chain 2 WPPPGTGDVVVQAPTQVPGFLGDSVTLPCYLQVPNMEVTHVSQLTWARHGESGWMAVFHQTQGPSYSESKRLEFVAARLGAELRNASLRMFGLRVEDEGNYTCLFVTFPQGSRSVDIWLRVLAKPQNTAEVQKVQLTGEPVPMARCVSTGGRPPAQITWHSDLGGMPNTSQVPGFLSGTVTVTSLWILVPSSQVDGKNVTCKVEHESFEKPQLLTVNLTVYYPPEVSISGYDNNWYLGQNEATLTCDARSNPEPTGYNWSTTMGPLPPFAVAQGAQLLIRPVDKPINTTLICNVTNALGARQAELTVQVKEGPPSEHSGISRNAIIFLVLGILVFLILLGIGIYFYWSKCSREVLWHCHLCPSSTEHASASANGHVSYSAVSRENSSSQDPQTEGTR [chain 2 S54W], the ratio to parent was roughly 1.2.

chain 2 WPPPGTGDVVVQAPTQVPGFLGDSVTLPCYLQVPNMEVTHVSQLEWARHGESGSMAVFHQTQGPSYSESKRLEFVAARLGAELRNASLRMFGLRVEDEGNYTCLFVTFPQGSRSVDIWLRVLAKPQNTAEVQKVQLTGEPVPMARCVSTGGRPPAQITWHSDLGGMPNTSQVPGFLSGTVTVTSLWILVPSSQVDGKNVTCKVEHESFEKPQLLTVNLTVYYPPEVSISGYDNNWYLGQNEATLTCDARSNPEPTGYNWSTTMGPLPPFAVAQGAQLLIRPVDKPINTTLICNVTNALGARQAELTVQVKEGPPSEHSGISRNAIIFLVLGILVFLILLGIGIYFYWSKCSREVLWHCHLCPSSTEHASASANGHVSYSAVSRENSSSQDPQTEGTR [chain 2 T45E]: the ratio to parent is roughly 0.1.

Variants of B1 are the subject of a further assay. Kind of assay: flow cytometry on cells; 120 nM hTIGIT-Fc; CHOK1 cells overexpressing hPVR; parent: 3.2e+03; read off a plot.
For chain 2 WPPPGTGDVVVQAPTQVPGFLGDSVTLPCYLQVPNMEVTHVSQLTWARHGESGSMAVFHQTQGPSYSESKRLEFVAARLGAELRNASLRMFGLRVEDEGNYTCLFVTFPQWSRSVDIWLRVLAKPQNTAEVQKVQLTGEPVPMARCVSTGGRPPAQITWHSDLGGMPNTSQVPGFLSGTVTVTSLWILVPSSQVDGKNVTCKVEHESFEKPQLLTVNLTVYYPPEVSISGYDNNWYLGQNEATLTCDARSNPEPTGYNWSTTMGPLPPFAVAQGAQLLIRPVDKPINTTLICNVTNALGARQAELTVQVKEGPPSEHSGISRNAIIFLVLGILVFLILLGIGIYFYWSKCSREVLWHCHLCPSSTEHASASANGHVSYSAVSRENSSSQDPQTEGTR [chain 2 G111W], the response is roughly 1700 MFI.

For the variant chain 2 WPPPGTGDVVVQAPTQVPGFLGDSVTLPCYLQVPNMEVTHVSQLTWARHGESGSMAVFHQTQGPSYWESKRLEFVAARLGAELRNASLRMFGLRVEDEGNYTCLFVTFPQGSRSVDIWLRVLAKPQNTAEVQKVQLTGEPVPMARCVSTGGRPPAQITWHSDLGGMPNTSQVPGFLSGTVTVTSLWILVPSSQVDGKNVTCKVEHESFEKPQLLTVNLTVYYPPEVSISGYDNNWYLGQNEATLTCDARSNPEPTGYNWSTTMGPLPPFAVAQGAQLLIRPVDKPINTTLICNVTNALGARQAELTVQVKEGPPSEHSGISRNAIIFLVLGILVFLILLGIGIYFYWSKCSREVLWHCHLCPSSTEHASASANGHVSYSAVSRENSSSQDPQTEGTR [chain 2 S67W], the response is roughly 2600 MFI.

As to chain 2 WPPPGTGDVVVQAPTQVPGFLGDSVTLPCYLQVPNMEVTHVSQLEWARHGESGSMAVFHQTQGPSYSESKRLEFVAARLGAELRNASLRMFGLRVEDEGNYTCLFVTFPQGSRSVDIWLRVLAKPQNTAEVQKVQLTGEPVPMARCVSTGGRPPAQITWHSDLGGMPNTSQVPGFLSGTVTVTSLWILVPSSQVDGKNVTCKVEHESFEKPQLLTVNLTVYYPPEVSISGYDNNWYLGQNEATLTCDARSNPEPTGYNWSTTMGPLPPFAVAQGAQLLIRPVDKPINTTLICNVTNALGARQAELTVQVKEGPPSEHSGISRNAIIFLVLGILVFLILLGIGIYFYWSKCSREVLWHCHLCPSSTEHASASANGHVSYSAVSRENSSSQDPQTEGTR [chain 2 T45E], the response was roughly 100 MFI.

The variants in another assay derive from B1. Described as above. This is another data set of the same source.
Regarding chain 2 WPPPGTGDVVVQAPTQVPGFLGDSVTLPCYLQVPNMEVTHVSQLTWARHGESGSMAVFHQTQGPSYSESKRLEFVAARLGAELRNASLRMFGLRVEDEGNYTCLFVTFPQVSRSVDIWLRVLAKPQNTAEVQKVQLTGEPVPMARCVSTGGRPPAQITWHSDLGGMPNTSQVPGFLSGTVTVTSLWILVPSSQVDGKNVTCKVEHESFEKPQLLTVNLTVYYPPEVSISGYDNNWYLGQNEATLTCDARSNPEPTGYNWSTTMGPLPPFAVAQGAQLLIRPVDKPINTTLICNVTNALGARQAELTVQVKEGPPSEHSGISRNAIIFLVLGILVFLILLGIGIYFYWSKCSREVLWHCHLCPSSTEHASASANGHVSYSAVSRENSSSQDPQTEGTR [chain 2 G111V], the response was roughly 4900 MFI.

Consider chain 2 WPPPGTGDVVVQAPTQVPGFLGDSVTLPCYLQVPNMEVTHVSQLTWARHGESGSMAVFHQTQGPSYSESKRLEFVAARLGAELRNASLRMFGLRVEDEGNYTCLFVTFPQGQRSVDIWLRVLAKPQNTAEVQKVQLTGEPVPMARCVSTGGRPPAQITWHSDLGGMPNTSQVPGFLSGTVTVTSLWILVPSSQVDGKNVTCKVEHESFEKPQLLTVNLTVYYPPEVSISGYDNNWYLGQNEATLTCDARSNPEPTGYNWSTTMGPLPPFAVAQGAQLLIRPVDKPINTTLICNVTNALGARQAELTVQVKEGPPSEHSGISRNAIIFLVLGILVFLILLGIGIYFYWSKCSREVLWHCHLCPSSTEHASASANGHVSYSAVSRENSSSQDPQTEGTR [chain 2 S112Q], for which the response was roughly 4400 MFI.

For the origin of these results see article PMC7869511, “Computer-aided design of PVR mutants with enhanced binding affinity to TIGIT” (Cell Communication and Signaling : CCS, 2021).
